The values below come from US12077763B2, “RNA-based control of powdery mildew” (Greenlight Biosciences, Inc., priority 2021, dated 2024).

The data set concerns E. necator. Briefly: Leaf disc assay, dry inoculum (settling tower), decrease in disease severity / hyphal growth (Example 2). To be noted: decrease in disease severity (hyphal growth) relative to untreated control, value ± SE; for % decrease =/− SE TP2: time point 2; for % decrease =/− SE TP1: time point 1 (untreated control hyphal growth ≥50%).

B1: GS3299 (nucleic acid)
sense: CACCAGGAUCCACCUAAAGAUGAGCCAACCGAUCAGAAGUCUCUGGAGCUGAGGAGAACCUUAUUUUAUAGUAUUUACUCUCUUGAUAGAUCUGUCAGUAUGGUUCACGCGCGCUCUUUUUCAUUUACCGACGAUUCGACUAGCGUUACUUUCCCAUCCAUUAAGAACGAGAAAUUACCAGUCGACACCAAAUUAAAACUAGGUAGGAAAUUCAAGAUUCAAUCCUCACUUUUAUUCAAACUUCGAAAGAUUCAGUCUUCAUGGUAUCACGAGCUUUUUCAAUCCAAAAAUGAUUUUAUAACAAAUCCAUCAACAUAUAUUCAGAAAGUGUGUCAAGAAAUGCAAGCAUGGGCUCAGUCGAUUCCCGAAUAUUUACCCACUCAUAUCAAAAAUUAUUU
antisense: AAAUAAUUUUUGAUAUGAGUGGGUAAAUAUUCGGGAAUCGACUGAGCCCAUGCUUGCAUUUCUUGACACACUUUCUGAAUAUAUGUUGAUGGAUUUGUUAUAAAAUCAUUUUUGGAUUGAAAAAGCUCGUGAUACCAUGAAGACUGAAUCUUUCGAAGUUUGAAUAAAAGUGAGGAUUGAAUCUUGAAUUUCCUACCUAGUUUUAAUUUGGUGUCGACUGGUAAUUUCUCGUUCUUAAUGGAUGGGAAAGUAACGCUAGUCGAAUCGUCGGUAAAUGAAAAAGAGCGCGCGUGAACCAUACUGACAGAUCUAUCAAGAGAGUAAAUACUAUAAAAUAAGGUUCUCCUCAGCUCCAGAGACUUCUGAUCGGUUGGCUCAUCUUUAGGUGGAUCCUGGUG
As to B1, the “% decrease =/− SE TP2” value came out at 14 ± 7%.

B2: GS3298 (nucleic acid)
sense: AUGCCUUACAAGGAGAAGAGGUCCGUGAGAAUUUUGACUCAUCUUUUGCCGCUCUUUAUCAUGAUCUUGAUAUGGGAUUUACACCGAUCAACUUUACAUUUUACUGGGCACCUCUACCUUGGAAUCGUGCUCGUGAUCAUGCCCAAAGAACUGUUGCUAGGACUUAUAUGAAUAUAAUCCAAGCUCGUAGAGAAGAGAAAACGUCAACAACCCCCCUCCUCUUCCCCUUCCCCUUCAUUGAACCUCGCUCCAAGGGGGCUUUAUGGGAAUCUGCCUCGUAGUAUAAAGUUCUGCAGCUGGCUCUACGGAUUGCAUCUACAACAACUACAACAUCAUCAUCAUCAUCAUCUUCAUCUUCAUCUUCUCCACCUUCAUAAGCUUCUACGUUUUUGCAUGUUCAA
antisense: UUGAACAUGCAAAAACGUAGAAGCUUAUGAAGGUGGAGAAGAUGAAGAUGAAGAUGAUGAUGAUGAUGAUGUUGUAGUUGUUGUAGAUGCAAUCCGUAGAGCCAGCUGCAGAACUUUAUACUACGAGGCAGAUUCCCAUAAAGCCCCCUUGGAGCGAGGUUCAAUGAAGGGGAAGGGGAAGAGGAGGGGGGUUGUUGACGUUUUCUCUUCUCUACGAGCUUGGAUUAUAUUCAUAUAAGUCCUAGCAACAGUUCUUUGGGCAUGAUCACGAGCACGAUUCCAAGGUAGAGGUGCCCAGUAAAAUGUAAAGUUGAUCGGUGUAAAUCCCAUAUCAAGAUCAUGAUAAAGAGCGGCAAAAGAUGAGUCAAAAUUCUCACGGACCUCUUCUCCUUGUAAGGCAU
Consider B2, for which the “% decrease =/− SE TP1” value stood at 22 ± 5% and the “% decrease =/− SE TP2” value is recorded as 7 ± 7%.

B3: GS3304 (nucleic acid)
sense: GUUACGCAUCGCCAACAGGGACCAGUUACCCUACACCUACUGGAGGUUACUCUGAAGAGCCCUACCACUAUAAAGGUGUCAAGCUAGGUCAUUGAGAGGAUUGAGUUACGAAAUUUGAUUGCAGCCACGCCUUCGACUUCAACCGAGAAGAGUUCCAAUCUCCCUCUUAGACGCAGGACUACUCUCACGAUACUUCUGUCUCUACUUCUUCUCAUGAGCACGCUAAUACUCUCUAAGCCUCCGUUGAUGUGUUGAAAGACAGGCACCUCAGUUUUGAUUCUAUUCAGCUCGGCAAACAUGUUGUGUACAUUCAUAGACUGAAUUUCUUUUUUAUUAUUUUUUUCCAAAUA
antisense: UAUUUGGAAAAAAAUAAUAAAAAAGAAAUUCAGUCUAUGAAUGUACACAACAUGUUUGCCGAGCUGAAUAGAAUCAAAACUGAGGUGCCUGUCUUUCAACACAUCAACGGAGGCUUAGAGAGUAUUAGCGUGCUCAUGAGAAGAAGUAGAGACAGAAGUAUCGUGAGAGUAGUCCUGCGUCUAAGAGGGAGAUUGGAACUCUUCUCGGUUGAAGUCGAAGGCGUGGCUGCAAUCAAAUUUCGUAACUCAAUCCUCUCAAUGACCUAGCUUGACACCUUUAUAGUGGUAGGGCUCUUCAGAGUAACCUCCAGUAGGUGUAGGGUAACUGGUCCCUGUUGGCGAUGCGUAAC
For B3, the “% decrease =/− SE TP2” value was found to be 6 ± 7%.

B4: GS3302 (nucleic acid)
sense: UCUGAAGAGCCCUACCACUAUAAAGGUGUCAAGCUAGGUCAUUGAGAGGAUUGAGUUACGAAAUUUGAUUGCAGCCACGCCUUCGACUUCAACCGAGAAGAGUUCCAAUCUCCCUCUUAGACGCAGGACUACUCUCACGAUACUUCUGUCUCUACUUCUUCUCAUGAGCACGCUAAUACUCUCUAAGCCUCCGUUGAUGUGUUGAAAGACAGGCACCUCAGUUUUGAUUCUAUUCAGCUCGGCAAACAUG
antisense: CAUGUUUGCCGAGCUGAAUAGAAUCAAAACUGAGGUGCCUGUCUUUCAACACAUCAACGGAGGCUUAGAGAGUAUUAGCGUGCUCAUGAGAAGAAGUAGAGACAGAAGUAUCGUGAGAGUAGUCCUGCGUCUAAGAGGGAGAUUGGAACUCUUCUCGGUUGAAGUCGAAGGCGUGGCUGCAAUCAAAUUUCGUAACUCAAUCCUCUCAAUGACCUAGCUUGACACCUUUAUAGUGGUAGGGCUCUUCAGA
Turning to B4, the “% decrease =/− SE TP1” value turned out to be 31 ± 5% and the “% decrease =/− SE TP2” value came out at 22 ± 7%.

B5: GS3300 (nucleic acid)
sense: GUAUCAACCAUUGCCUCUCCAAACCUUUCACCAACAACUUCCUUUUCAUCUUUUGUACGAACAGAAACGCCUGAUUCCAGUCUGCCAUUUAUAGAAAAUCCAGUGGCUAGACAAAAUGCACAUUGUAGUAGUAAGAGUGUUGGCAAUGGAAAUGGAAUUUUUAACUUGGACAUGAAUCUUUUGGCUUCUGCUGCUAUUAGGGUGGAAGGGAAUCACUCAUCAAACGCUUGUCAUCUCCCCCGAUACAAUAAAUCAUGCUGCGACCUCAGUGCGUACAAGAGUCGUUCUCAUUUUGCCUCAUCAUCACUUGUUCAGUCUCAUCCACCUCCGACAUUAGACAAGCUCAAUCAUUGCAUUAAGAGGUAUAUGAAGCGUUCACGAACUGACU
antisense: AGUCAGUUCGUGAACGCUUCAUAUACCUCUUAAUGCAAUGAUUGAGCUUGUCUAAUGUCGGAGGUGGAUGAGACUGAACAAGUGAUGAUGAGGCAAAAUGAGAACGACUCUUGUACGCACUGAGGUCGCAGCAUGAUUUAUUGUAUCGGGGGAGAUGACAAGCGUUUGAUGAGUGAUUCCCUUCCACCCUAAUAGCAGCAGAAGCCAAAAGAUUCAUGUCCAAGUUAAAAAUUCCAUUUCCAUUGCCAACACUCUUACUACUACAAUGUGCAUUUUGUCUAGCCACUGGAUUUUCUAUAAAUGGCAGACUGGAAUCAGGCGUUUCUGUUCGUACAAAAGAUGAAAAGGAAGUUGUUGGUGAAAGGUUUGGAGAGGCAAUGGUUGAUAC
On to B5, for which the “% decrease =/− SE TP1” value is given as 9 ± 5% and the “% decrease =/− SE TP2” value is 4 ± 8%.

B6: GS3297 (nucleic acid)
sense: GAGAAGAGGUCCGUGAGAAUUUUGACUCAUCUUUUGCCGCUCUUUAUCAUGAUCUUGAUAUGGGAUUUACACCGAUCAACUUUACAUUUUACUGGGCACCUCUACCUUGGAAUCGUGCUCGUGAUCAUGCCCAAAGAACUGUUGCUAGGACUUAUAUGAAUAUAAUCCAAGCUCGUACCCUCCUCUUCCCCUUCCCCUUCAUUGAACCUCGCUCCAAGGGGGCUUUAUGGGAAUCUGCCUCGUAGUAUAAAGUUCUGCAGCUGGCUCUACGGAUUGCAUCUACAACAACUACAACAUCAUCAUCAUCAUCAUCUUCAUCUUCAUCUUCUCCACCUUCAUAAGCUUCUACGUUUU
antisense: AAAACGUAGAAGCUUAUGAAGGUGGAGAAGAUGAAGAUGAAGAUGAUGAUGAUGAUGAUGUUGUAGUUGUUGUAGAUGCAAUCCGUAGAGCCAGCUGCAGAACUUUAUACUACGAGGCAGAUUCCCAUAAAGCCCCCUUGGAGCGAGGUUCAAUGAAGGGGAAGGGGAAGAGGAGGGUACGAGCUUGGAUUAUAUUCAUAUAAGUCCUAGCAACAGUUCUUUGGGCAUGAUCACGAGCACGAUUCCAAGGUAGAGGUGCCCAGUAAAAUGUAAAGUUGAUCGGUGUAAAUCCCAUAUCAAGAUCAUGAUAAAGAGCGGCAAAAGAUGAGUCAAAAUUCUCACGGACCUCUUCUC
Regarding B6, the “% decrease =/− SE TP1” value was determined as 12 ± 6% and the “% decrease =/− SE TP2” value is reported as 22 ± 7%.

B7: GS3303 (nucleic acid)
sense: UUACCCUACACCUACUGGAGGUUACUCUGAAGAGCCCUACCACUAUAAAGGUGUCAAGCUAGGUCAUUGAGAGGAUUGAGUUACGAAAUUUGAUUGCAGCCACGCCUUCGACUUCAACCGAGAAGAGUUCCAAUCUCCCUCUUAGACGCAGGACUACUCUCACGAUACUUCUGUCUCUACUUCUUCUCAUGAGCACGCUAAUACUCUCUAAGCCUCCGUUGAUGUGUUGAAAGACAGGCACCUCAGUUUUGAUUCUAUUCAGCUCGGCAAACAUGUUGUGUACAUUCAUAGACUGAAUUU
antisense: AAAUUCAGUCUAUGAAUGUACACAACAUGUUUGCCGAGCUGAAUAGAAUCAAAACUGAGGUGCCUGUCUUUCAACACAUCAACGGAGGCUUAGAGAGUAUUAGCGUGCUCAUGAGAAGAAGUAGAGACAGAAGUAUCGUGAGAGUAGUCCUGCGUCUAAGAGGGAGAUUGGAACUCUUCUCGGUUGAAGUCGAAGGCGUGGCUGCAAUCAAAUUUCGUAACUCAAUCCUCUCAAUGACCUAGCUUGACACCUUUAUAGUGGUAGGGCUCUUCAGAGUAACCUCCAGUAGGUGUAGGGUAA
Turning to B7, the “% decrease =/− SE TP1” value is reported as 35 ± 5% and the “% decrease =/− SE TP2” value is recorded as 15 ± 9%.

B8: GS3301 (nucleic acid)
sense: CAACAGGGACCAGUUACCCUACACCUACUGGAGGUUACUCUGAAGAGCCCUACCACUAUAAAGGUGUCAAGCUAGGUCAUUGAGAGGAUUGAGUUACGAAAUUUGAUUGCAGCCACGCCUUCGACUUCAACCGAGAAGAGUUCCAAUCUCCCUCUUAGACGCAGGACUACUCUCACGAUACUUCUGUCUCUACUUCUUCUCAUGAGCACGCUAAUACUCUCUAAGCCUCCGUUGAUGUGUUGAAAGACAGGCACCUCAGUUUUGAUUCUAUUCAGCUCGGCAAACAUGUUGUGUACAUUCAUAGACUGAAUUUCUUUUUUAUUAUUU
antisense: AAAUAAUAAAAAAGAAAUUCAGUCUAUGAAUGUACACAACAUGUUUGCCGAGCUGAAUAGAAUCAAAACUGAGGUGCCUGUCUUUCAACACAUCAACGGAGGCUUAGAGAGUAUUAGCGUGCUCAUGAGAAGAAGUAGAGACAGAAGUAUCGUGAGAGUAGUCCUGCGUCUAAGAGGGAGAUUGGAACUCUUCUCGGUUGAAGUCGAAGGCGUGGCUGCAAUCAAAUUUCGUAACUCAAUCCUCUCAAUGACCUAGCUUGACACCUUUAUAGUGGUAGGGCUCUUCAGAGUAACCUCCAGUAGGUGUAGGGUAACUGGUCCCUGUUG
Regarding B8, the “% decrease =/− SE TP1” value is on record as 32 ± 5% and the “% decrease =/− SE TP2” value is 0 ± 9%.
